Blank lines part the entries; values can stand above or below the binder they belong to.
Key:
[1] = target: T1, human AXL expressed on the cell surface of tumor cell lines (human, UniProt P30530 26-894); test: FACS on MDA-MB-231 luciferase cells, apparent Kd
T1 construct: whole, on cells; also called cell surface-expressed AXL; cell-based AXL
T1 sequence (looked up): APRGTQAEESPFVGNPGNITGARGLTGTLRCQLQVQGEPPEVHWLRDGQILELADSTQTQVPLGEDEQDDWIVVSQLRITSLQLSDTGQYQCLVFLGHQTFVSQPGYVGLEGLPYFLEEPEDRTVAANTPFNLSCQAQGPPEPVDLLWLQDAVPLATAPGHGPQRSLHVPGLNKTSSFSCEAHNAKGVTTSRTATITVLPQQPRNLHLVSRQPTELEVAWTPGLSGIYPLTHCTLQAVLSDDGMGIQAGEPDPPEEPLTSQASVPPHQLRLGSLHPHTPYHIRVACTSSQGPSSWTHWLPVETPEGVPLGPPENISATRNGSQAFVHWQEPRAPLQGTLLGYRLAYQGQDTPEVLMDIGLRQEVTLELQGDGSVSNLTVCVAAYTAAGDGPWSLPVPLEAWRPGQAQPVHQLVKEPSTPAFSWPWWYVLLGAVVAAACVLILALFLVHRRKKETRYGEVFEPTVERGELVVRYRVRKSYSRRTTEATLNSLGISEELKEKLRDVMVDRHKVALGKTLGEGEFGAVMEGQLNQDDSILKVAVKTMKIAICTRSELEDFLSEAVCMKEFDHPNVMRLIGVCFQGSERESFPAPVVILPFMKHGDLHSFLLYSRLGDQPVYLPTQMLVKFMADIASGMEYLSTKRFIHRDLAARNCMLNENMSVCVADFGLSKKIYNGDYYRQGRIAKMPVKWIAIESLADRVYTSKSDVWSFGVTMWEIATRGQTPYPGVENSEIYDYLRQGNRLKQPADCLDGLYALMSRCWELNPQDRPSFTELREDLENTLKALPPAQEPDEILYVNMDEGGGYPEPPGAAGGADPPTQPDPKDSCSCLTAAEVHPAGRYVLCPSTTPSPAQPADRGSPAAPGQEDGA
Description: FACS binding assay. Adherent cells were dissociated with non-enzymatic Sigma Cell Dissociation Solution (Cat. No. C5789). Cells suspensions were added to polypropylene, V-bottom 96-well plates and incubated for 2 hours on ice with primary antibodies at concentrations ranging from 100 nM to 0.001 nM or at a single dose of 100 nM (for the non-specific control). After incubation and washes, cells were incubated with fluorescently labeled secondary antibody (Alexa Fluor® 488 anti-human IgG from Jackson Cat. No 709-546-098) for 1 hour on ice, then washed. Cell viability was determined using Fixable viability dye 450 (20 min on ice). Stained cells were fixed in 1% formaldehyde at 4° C. and stored at 4° C. until acquisition which was performed the next day.
Binding of recombinant chimeric Abs to three cell lines was assessed by FACS as described above. The apparent Bmax and Kd determination is shown below in Table 14.

[2] = target: T2, huMER-ECD displayed on yeast (human, UniProt Q12866 21-505); test: yeast surface display ELISA, non-denatured yeast, goat anti-human F(ab')2-HRP
T2 construct: extracellular domain
T2 sequence (looked up): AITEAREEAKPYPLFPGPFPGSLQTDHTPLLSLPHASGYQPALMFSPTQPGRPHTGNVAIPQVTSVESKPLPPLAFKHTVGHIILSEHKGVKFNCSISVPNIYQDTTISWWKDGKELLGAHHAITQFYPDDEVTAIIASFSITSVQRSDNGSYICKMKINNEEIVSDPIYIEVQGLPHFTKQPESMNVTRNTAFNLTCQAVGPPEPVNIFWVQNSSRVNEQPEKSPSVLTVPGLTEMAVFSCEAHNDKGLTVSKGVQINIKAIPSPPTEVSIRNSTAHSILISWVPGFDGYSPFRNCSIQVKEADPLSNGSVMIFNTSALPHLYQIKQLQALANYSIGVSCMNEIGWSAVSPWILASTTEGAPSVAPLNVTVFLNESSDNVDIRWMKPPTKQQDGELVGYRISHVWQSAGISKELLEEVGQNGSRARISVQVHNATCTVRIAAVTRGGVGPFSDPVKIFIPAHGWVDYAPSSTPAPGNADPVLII

[3] = target: T3, mouse AXL extracellular domain (Sino cat. 51026-M08H) (mouse, UniProt Q00993 19-445); test: ELISA on coated mouse AXL ECD (100 ng/well), VHH-Fc
T3 construct: extracellular domain; Bought protein; also called mouse AXL ECD
T3 sequence (looked up): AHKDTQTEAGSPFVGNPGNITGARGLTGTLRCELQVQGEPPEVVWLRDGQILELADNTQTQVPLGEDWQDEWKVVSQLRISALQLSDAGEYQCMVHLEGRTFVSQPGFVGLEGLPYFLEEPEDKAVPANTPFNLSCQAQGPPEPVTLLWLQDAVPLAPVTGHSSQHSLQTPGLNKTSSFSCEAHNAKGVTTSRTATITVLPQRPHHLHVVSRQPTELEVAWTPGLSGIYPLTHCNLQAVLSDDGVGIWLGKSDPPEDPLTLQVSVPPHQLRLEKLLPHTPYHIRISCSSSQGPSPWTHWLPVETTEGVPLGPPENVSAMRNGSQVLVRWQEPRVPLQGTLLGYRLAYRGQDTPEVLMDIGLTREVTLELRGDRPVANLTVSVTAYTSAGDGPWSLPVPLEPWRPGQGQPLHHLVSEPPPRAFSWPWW
Description: ELISA. ELISAs against human, cyno and mouse AXL ECDs were conducted by immobilizing 100 ng of each protein in wells of Nunc MaxiSorp microplates overnight. Human AXL (aa 1-451) and cyno AXL (aa 1-449) were produced recombinantly as described in Example 10. Mouse AXL was purchased from Sino (cat. 51026-M08H). The next day, plates were blocked with 5% (w/v) dried milk in PBS. Murine mAbs (either hybridoma- or recombinantly-produced) or VHH-Fcs were diluted in PBS containing 1% BSA and 0.1% Tween-20 and added to wells for 2 hours at room temperature. Wells were washed 5× with PBS containing 0.1% Tween-20, then HRP-labeled protein A (diluted 1:1000 in PBS containing 1% BSA and 0.1% Tween™-20) was added to wells for 1 hour at room temperature. Wells were washed again 5× with PBS/0.1% Tween-20 and developed using TMB substrate. Absorbance was measured at 450 nm. As a positive control for mouse AXL binding, a commercial anti-mouse AXL mAb (clone 175128, R&D Systems MAB8541, rat IgG2A) was used and detected with donkey […] secondary antibody.

Kd [1]: 0.101 nM
yeast ELISA signal normalized to myc expression level [2]: -0.02
B1: hFC-F107-10G1 (antibody, human IgG1, kappa, V domains shown)
VH: EVNLVESGGGVVKPGASLKLSCEASGFTFSNYGMSWVRQTSDKRLEWVASISGGGGRTYYLDNVKGRFIISRENAKNTLYLQMSSLKSEDTALFYCARGARASYFAMDYWGQGSSVTVSS
VL: VIVMTQSHKFMSTSVGDRVSITCKASQDVTTAVAWYQQKPGQSPKLLIYWASTRHTGVPDRFTGSGSGTDYSLTISNVQTEDLAFYYCQQHFTTPLTFGAGTKLELKR
notes: Chimeric mAb, human IgG1 / human kappa constant regions; also called mAb F107-10G1

binding result [3]: no binding
B2: NRC-sdAb001-Fc (VHH-human IgG1 Fc fusion) (Fc fusion)
chain: QVKLEESGGGLVQAGGSLRLSCTASASISSFDIMGWYRQAPGKQRELVAAITTLDIANYRDSVKGRFTISRDNAKNTVYLQMDSLKPEDTARYHCAAFQSDQNYWGQGTQVTVSS
notes: VHH fused N-terminally to human IgG1 Fc, made in HEK293 cells; also called NRC-sdAb0001-Fc; NRC-sdAb001-hIgG1; not shown: human IgG1 Fc
